Measured values reported in article PMC8406179.

How the values were obtained:
[1] = target: retinoblastoma tumor suppressor protein RB1 (endogenous, HCT116) (UniProt P06400); assay: immunoprecipitation/Western blot (anti-Flag IP of E7, RB1 immunoblot); conditions: parent: 1
endogenous murine Rb1 = endogenous murine Rb1 (UniProt P13405); assay: immunoprecipitation/Western blot (anti-HA IP of E7, Rb1 immunoblot); conditions: NIH 3T3 cells, transient expression; parent: 1
[2] = HCT116 cells, transient expression

UniProt P06400, sequence (P06400 whole entry): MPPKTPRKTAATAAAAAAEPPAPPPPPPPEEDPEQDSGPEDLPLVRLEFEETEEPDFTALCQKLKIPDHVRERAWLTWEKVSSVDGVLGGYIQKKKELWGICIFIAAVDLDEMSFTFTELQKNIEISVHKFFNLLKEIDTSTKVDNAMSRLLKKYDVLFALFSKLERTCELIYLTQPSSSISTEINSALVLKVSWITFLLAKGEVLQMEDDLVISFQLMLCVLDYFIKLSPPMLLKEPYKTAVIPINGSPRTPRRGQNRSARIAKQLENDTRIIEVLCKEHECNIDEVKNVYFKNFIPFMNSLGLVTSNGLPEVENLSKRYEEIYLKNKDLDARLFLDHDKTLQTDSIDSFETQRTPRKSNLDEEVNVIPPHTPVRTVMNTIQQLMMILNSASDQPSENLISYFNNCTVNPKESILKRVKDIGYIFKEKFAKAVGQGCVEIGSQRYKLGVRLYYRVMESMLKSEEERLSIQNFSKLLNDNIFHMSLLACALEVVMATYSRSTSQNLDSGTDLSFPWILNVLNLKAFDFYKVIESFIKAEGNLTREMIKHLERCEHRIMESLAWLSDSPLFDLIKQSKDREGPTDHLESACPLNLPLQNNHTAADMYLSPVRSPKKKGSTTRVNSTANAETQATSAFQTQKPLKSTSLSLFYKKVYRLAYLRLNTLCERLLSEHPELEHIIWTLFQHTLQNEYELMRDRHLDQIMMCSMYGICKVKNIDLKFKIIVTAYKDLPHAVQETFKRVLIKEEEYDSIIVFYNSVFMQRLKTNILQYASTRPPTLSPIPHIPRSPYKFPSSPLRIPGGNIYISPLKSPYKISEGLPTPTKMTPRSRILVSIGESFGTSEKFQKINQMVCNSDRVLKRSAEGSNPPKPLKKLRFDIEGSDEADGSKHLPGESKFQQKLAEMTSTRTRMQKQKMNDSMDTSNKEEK
UniProt P13405, sequence (P13405 whole entry): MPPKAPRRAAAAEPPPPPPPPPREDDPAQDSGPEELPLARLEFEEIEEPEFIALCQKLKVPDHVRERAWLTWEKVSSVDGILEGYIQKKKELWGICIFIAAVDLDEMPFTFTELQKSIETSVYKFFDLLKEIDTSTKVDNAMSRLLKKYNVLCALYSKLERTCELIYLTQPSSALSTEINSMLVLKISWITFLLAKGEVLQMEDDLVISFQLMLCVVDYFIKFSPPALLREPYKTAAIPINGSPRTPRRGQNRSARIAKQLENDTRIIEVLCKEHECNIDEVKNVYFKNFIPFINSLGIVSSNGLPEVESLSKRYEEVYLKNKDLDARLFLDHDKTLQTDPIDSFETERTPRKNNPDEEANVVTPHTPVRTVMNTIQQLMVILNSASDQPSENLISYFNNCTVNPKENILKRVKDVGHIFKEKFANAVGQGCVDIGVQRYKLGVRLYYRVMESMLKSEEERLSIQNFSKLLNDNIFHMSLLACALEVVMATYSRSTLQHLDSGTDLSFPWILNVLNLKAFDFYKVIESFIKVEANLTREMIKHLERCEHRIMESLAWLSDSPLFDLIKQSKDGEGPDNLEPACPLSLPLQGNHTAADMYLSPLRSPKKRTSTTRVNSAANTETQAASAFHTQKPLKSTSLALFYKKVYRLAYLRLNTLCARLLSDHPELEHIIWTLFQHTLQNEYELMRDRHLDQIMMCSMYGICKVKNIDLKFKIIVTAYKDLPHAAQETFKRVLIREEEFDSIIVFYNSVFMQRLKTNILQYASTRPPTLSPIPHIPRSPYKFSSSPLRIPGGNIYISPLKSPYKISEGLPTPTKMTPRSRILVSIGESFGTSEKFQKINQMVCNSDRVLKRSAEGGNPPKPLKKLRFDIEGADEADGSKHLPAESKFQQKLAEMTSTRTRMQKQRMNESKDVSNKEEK

Substance | ratio to parent [1] | ratio to parent (endogenous murine Rb1) | ratio to parent [1, 2]
N-terminally FLAG/HA epitope-tagged MmuPV1 E7 D90N | 0.27 | – | –
N-terminally FLAG/HA epitope-tagged MmuPV1 E7 D90A | 0.05 | 0.02 | 0.01
N-terminally FLAG/HA epitope-tagged MmuPV1 E7 D90T | 0.07 | – | –
N-terminally FLAG/HA epitope-tagged MmuPV1 E7 E84R; S85R | – | – | 0.65
N-terminally FLAG/HA epitope-tagged MmuPV1 E7 R57D | – | – | 0.64
